We go through six molecules from US20140206609A1 (Sanofi, published 2014).

*1 amine or outer side, *2 acyl side, *3 side chain or, on linkers, in order; H or OH if unused. Where no end group is shown, it is not given here. Side-chain parts run from the residue outwards. [ ]: non-standard residue; d: D form. The star is where a group is joined. γGlu = O=C(O)[C@H](CCC(=O)[*:2])N[*:1]; Palmitoyl = CCCCCCCCCCCCCCCC(=O)*; Aib = CC(C)(N)C(=O)O

T1: human GIP receptor (human, UniProt P48546 22-466)
T1 sequence (looked up): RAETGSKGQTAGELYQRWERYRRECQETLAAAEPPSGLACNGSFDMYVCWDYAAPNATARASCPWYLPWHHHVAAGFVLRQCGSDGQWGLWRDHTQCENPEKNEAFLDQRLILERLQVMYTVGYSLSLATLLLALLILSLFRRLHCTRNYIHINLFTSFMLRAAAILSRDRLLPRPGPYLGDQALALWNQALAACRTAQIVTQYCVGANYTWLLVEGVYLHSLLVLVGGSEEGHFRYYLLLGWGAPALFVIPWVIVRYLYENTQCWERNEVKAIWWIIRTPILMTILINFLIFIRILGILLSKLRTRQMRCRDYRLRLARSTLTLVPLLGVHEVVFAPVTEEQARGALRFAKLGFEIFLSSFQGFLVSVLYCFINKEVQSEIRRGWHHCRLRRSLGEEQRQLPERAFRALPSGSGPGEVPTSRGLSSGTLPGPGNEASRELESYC

B1: SEQ ID NO: 29 (peptide)
peptide: Y[Aib]QGTFTSDLSIQK([γGlu-Palmitoyl])DSRAAQEFIEWLKAGGPSSGAPPPS-NH2
modifications: N-terminus assumed
SMILES: CCCCCCCCCCCCCCCC(=O)N[C@@H](CCC(=O)NCCCC[C@H](NC(=O)[C@H](CCC(N)=O)NC(=O)[C@@H](NC(=O)[C@H](CO)NC(=O)[C@H](CC(C)C)NC(=O)[C@H](CC(=O)O)NC(=O)[C@H](CO)NC(=O)[C@@H](NC(=O)[C@H](Cc1ccccc1)NC(=O)[C@@H](NC(=O)CNC(=O)[C@H](CCC(N)=O)NC(=O)C(C)(C)NC(=O)[C@@H](N)Cc1ccc(O)cc1)[C@@H](C)O)[C@@H](C)O)[C@@H](C)CC)C(=O)N[C@@H](CC(=O)O)C(=O)N[C@@H](CO)C(=O)N[C@@H](CCCNC(=N)N)C(=O)N[C@@H](C)C(=O)N[C@@H](C)C(=O)N[C@@H](CCC(N)=O)C(=O)N[C@@H](CCC(=O)O)C(=O)N[C@@H](Cc1ccccc1)C(=O)N[C@H](C(=O)N[C@@H](CCC(=O)O)C(=O)N[C@@H](Cc1c[nH]c2ccccc12)C(=O)N[C@@H](CC(C)C)C(=O)N[C@@H](CCCCN)C(=O)N[C@@H](C)C(=O)NCC(=O)NCC(=O)N1CCC[C@H]1C(=O)N[C@@H](CO)C(=O)N[C@@H](CO)C(=O)NCC(=O)N[C@@H](C)C(=O)N1CCC[C@H]1C(=O)N1CCC[C@H]1C(=O)N1CCC[C@H]1C(=O)N[C@@H](CO)C(N)=O)[C@@H](C)CC)C(=O)O
B2: SEQ ID NO: 28 (peptide)
peptide: Y[Aib]QGTFTSDLSIQK([γGlu-Palmitoyl])DKRAAQDFIEWLKAGGPSSGAPPPS-NH2
modifications: N-terminus assumed
SMILES: CCCCCCCCCCCCCCCC(=O)N[C@@H](CCC(=O)NCCCC[C@H](NC(=O)[C@H](CCC(N)=O)NC(=O)[C@@H](NC(=O)[C@H](CO)NC(=O)[C@H](CC(C)C)NC(=O)[C@H](CC(=O)O)NC(=O)[C@H](CO)NC(=O)[C@@H](NC(=O)[C@H](Cc1ccccc1)NC(=O)[C@@H](NC(=O)CNC(=O)[C@H](CCC(N)=O)NC(=O)C(C)(C)NC(=O)[C@@H](N)Cc1ccc(O)cc1)[C@@H](C)O)[C@@H](C)O)[C@@H](C)CC)C(=O)N[C@@H](CC(=O)O)C(=O)N[C@@H](CCCCN)C(=O)N[C@@H](CCCNC(=N)N)C(=O)N[C@@H](C)C(=O)N[C@@H](C)C(=O)N[C@@H](CCC(N)=O)C(=O)N[C@@H](CC(=O)O)C(=O)N[C@@H](Cc1ccccc1)C(=O)N[C@H](C(=O)N[C@@H](CCC(=O)O)C(=O)N[C@@H](Cc1c[nH]c2ccccc12)C(=O)N[C@@H](CC(C)C)C(=O)N[C@@H](CCCCN)C(=O)N[C@@H](C)C(=O)NCC(=O)NCC(=O)N1CCC[C@H]1C(=O)N[C@@H](CO)C(=O)N[C@@H](CO)C(=O)NCC(=O)N[C@@H](C)C(=O)N1CCC[C@H]1C(=O)N1CCC[C@H]1C(=O)N1CCC[C@H]1C(=O)N[C@@H](CO)C(N)=O)[C@@H](C)CC)C(=O)O
B3: SEQ ID NO: 30 (peptide)
peptide: Y[Aib]QGTFTSDLSIQK([γGlu-Palmitoyl])DSRAA[Aib]DFIEWLKAGGPSSGAPPPS-NH2
modifications: N-terminus assumed
SMILES: CCCCCCCCCCCCCCCC(=O)N[C@@H](CCC(=O)NCCCC[C@H](NC(=O)[C@H](CCC(N)=O)NC(=O)[C@@H](NC(=O)[C@H](CO)NC(=O)[C@H](CC(C)C)NC(=O)[C@H](CC(=O)O)NC(=O)[C@H](CO)NC(=O)[C@@H](NC(=O)[C@H](Cc1ccccc1)NC(=O)[C@@H](NC(=O)CNC(=O)[C@H](CCC(N)=O)NC(=O)C(C)(C)NC(=O)[C@@H](N)Cc1ccc(O)cc1)[C@@H](C)O)[C@@H](C)O)[C@@H](C)CC)C(=O)N[C@@H](CC(=O)O)C(=O)N[C@@H](CO)C(=O)N[C@@H](CCCNC(=N)N)C(=O)N[C@@H](C)C(=O)N[C@@H](C)C(=O)NC(C)(C)C(=O)N[C@@H](CC(=O)O)C(=O)N[C@@H](Cc1ccccc1)C(=O)N[C@H](C(=O)N[C@@H](CCC(=O)O)C(=O)N[C@@H](Cc1c[nH]c2ccccc12)C(=O)N[C@@H](CC(C)C)C(=O)N[C@@H](CCCCN)C(=O)N[C@@H](C)C(=O)NCC(=O)NCC(=O)N1CCC[C@H]1C(=O)N[C@@H](CO)C(=O)N[C@@H](CO)C(=O)NCC(=O)N[C@@H](C)C(=O)N1CCC[C@H]1C(=O)N1CCC[C@H]1C(=O)N1CCC[C@H]1C(=O)N[C@@H](CO)C(N)=O)[C@@H](C)CC)C(=O)O
B4: SEQ ID NO: 26 (peptide)
peptide: Y[Aib]EGTFTSDLSIQK([γGlu-Palmitoyl])EKRAAQEFIEWLKNTGPSSGAPPPS-NH2
modifications: N-terminus assumed
SMILES: CCCCCCCCCCCCCCCC(=O)N[C@@H](CCC(=O)NCCCC[C@H](NC(=O)[C@H](CCC(N)=O)NC(=O)[C@@H](NC(=O)[C@H](CO)NC(=O)[C@H](CC(C)C)NC(=O)[C@H](CC(=O)O)NC(=O)[C@H](CO)NC(=O)[C@@H](NC(=O)[C@H](Cc1ccccc1)NC(=O)[C@@H](NC(=O)CNC(=O)[C@H](CCC(=O)O)NC(=O)C(C)(C)NC(=O)[C@@H](N)Cc1ccc(O)cc1)[C@@H](C)O)[C@@H](C)O)[C@@H](C)CC)C(=O)N[C@@H](CCC(=O)O)C(=O)N[C@@H](CCCCN)C(=O)N[C@@H](CCCNC(=N)N)C(=O)N[C@@H](C)C(=O)N[C@@H](C)C(=O)N[C@@H](CCC(N)=O)C(=O)N[C@@H](CCC(=O)O)C(=O)N[C@@H](Cc1ccccc1)C(=O)N[C@H](C(=O)N[C@@H](CCC(=O)O)C(=O)N[C@@H](Cc1c[nH]c2ccccc12)C(=O)N[C@@H](CC(C)C)C(=O)N[C@@H](CCCCN)C(=O)N[C@@H](CC(N)=O)C(=O)N[C@H](C(=O)NCC(=O)N1CCC[C@H]1C(=O)N[C@@H](CO)C(=O)N[C@@H](CO)C(=O)NCC(=O)N[C@@H](C)C(=O)N1CCC[C@H]1C(=O)N1CCC[C@H]1C(=O)N1CCC[C@H]1C(=O)N[C@@H](CO)C(N)=O)[C@@H](C)O)[C@@H](C)CC)C(=O)O
B5: SEQ ID NO: 25 (peptide)
peptide: Y[Aib]EGTFTSDLSIQK([γGlu-Palmitoyl])ESRAAQEFIEWLKNTGPSSGAPPPS-NH2
modifications: N-terminus assumed
SMILES: CCCCCCCCCCCCCCCC(=O)N[C@@H](CCC(=O)NCCCC[C@H](NC(=O)[C@H](CCC(N)=O)NC(=O)[C@@H](NC(=O)[C@H](CO)NC(=O)[C@H](CC(C)C)NC(=O)[C@H](CC(=O)O)NC(=O)[C@H](CO)NC(=O)[C@@H](NC(=O)[C@H](Cc1ccccc1)NC(=O)[C@@H](NC(=O)CNC(=O)[C@H](CCC(=O)O)NC(=O)C(C)(C)NC(=O)[C@@H](N)Cc1ccc(O)cc1)[C@@H](C)O)[C@@H](C)O)[C@@H](C)CC)C(=O)N[C@@H](CCC(=O)O)C(=O)N[C@@H](CO)C(=O)N[C@@H](CCCNC(=N)N)C(=O)N[C@@H](C)C(=O)N[C@@H](C)C(=O)N[C@@H](CCC(N)=O)C(=O)N[C@@H](CCC(=O)O)C(=O)N[C@@H](Cc1ccccc1)C(=O)N[C@H](C(=O)N[C@@H](CCC(=O)O)C(=O)N[C@@H](Cc1c[nH]c2ccccc12)C(=O)N[C@@H](CC(C)C)C(=O)N[C@@H](CCCCN)C(=O)N[C@@H](CC(N)=O)C(=O)N[C@H](C(=O)NCC(=O)N1CCC[C@H]1C(=O)N[C@@H](CO)C(=O)N[C@@H](CO)C(=O)NCC(=O)N[C@@H](C)C(=O)N1CCC[C@H]1C(=O)N1CCC[C@H]1C(=O)N1CCC[C@H]1C(=O)N[C@@H](CO)C(N)=O)[C@@H](C)O)[C@@H](C)CC)C(=O)O
B6: SEQ ID NO: 27 (peptide)
peptide: Y[Aib]EGTFTSDLSIQK([γGlu-Palmitoyl])EKRAA[Aib]DFIEWLKNTGPSSGAPPPS-NH2
modifications: N-terminus assumed
SMILES: CCCCCCCCCCCCCCCC(=O)N[C@@H](CCC(=O)NCCCC[C@H](NC(=O)[C@H](CCC(N)=O)NC(=O)[C@@H](NC(=O)[C@H](CO)NC(=O)[C@H](CC(C)C)NC(=O)[C@H](CC(=O)O)NC(=O)[C@H](CO)NC(=O)[C@@H](NC(=O)[C@H](Cc1ccccc1)NC(=O)[C@@H](NC(=O)CNC(=O)[C@H](CCC(=O)O)NC(=O)C(C)(C)NC(=O)[C@@H](N)Cc1ccc(O)cc1)[C@@H](C)O)[C@@H](C)O)[C@@H](C)CC)C(=O)N[C@@H](CCC(=O)O)C(=O)N[C@@H](CCCCN)C(=O)N[C@@H](CCCNC(=N)N)C(=O)N[C@@H](C)C(=O)N[C@@H](C)C(=O)NC(C)(C)C(=O)N[C@@H](CC(=O)O)C(=O)N[C@@H](Cc1ccccc1)C(=O)N[C@H](C(=O)N[C@@H](CCC(=O)O)C(=O)N[C@@H](Cc1c[nH]c2ccccc12)C(=O)N[C@@H](CC(C)C)C(=O)N[C@@H](CCCCN)C(=O)N[C@@H](CC(N)=O)C(=O)N[C@H](C(=O)NCC(=O)N1CCC[C@H]1C(=O)N[C@@H](CO)C(=O)N[C@@H](CO)C(=O)NCC(=O)N[C@@H](C)C(=O)N1CCC[C@H]1C(=O)N1CCC[C@H]1C(=O)N1CCC[C@H]1C(=O)N[C@@H](CO)C(N)=O)[C@@H](C)O)[C@@H](C)CC)C(=O)O

One assay concerns the target human GLP-1 receptor (human, UniProt P43220 24-463). As to the kind of experiment: cell-based or functional assay.
Regarding B1, the “EC50 hGLP-1 R [pM]” value worked out at 7 pM.

On to B2, for which the “EC50 hGLP-1 R [pM]” value amounted to 3.2 pM.

B3: the “EC50 hGLP-1 R [pM]” value is 12 pM.

As for B4, the “EC50 hGLP-1 R [pM]” value was 4.9 pM.

In the case of B5, the “EC50 hGLP-1 R [pM]” value came to 9.5 pM.

For the molecule B6, the “EC50 hGLP-1 R [pM]” value turned out to be 4 pM.

The target in the next assay is T1, human GIP receptor. Put plainly: cell-based or functional assay.
Consider B1, for which the “EC50 hGIP R [pM]” value was 127 pM.

Regarding B2, the “EC50 hGIP R [pM]” value came to 10.9 pM.

On to B3, for which the “EC50 hGIP R [pM]” value was 22.1 pM.

For B4, the “EC50 hGIP R [pM]” value worked out at 19.7 pM.

In the case of B5, the “EC50 hGIP R [pM]” value is 73.6 pM.

Turning to B6, the “EC50 hGIP R [pM]” value is 6.7 pM.

The next assay deals with human glucagon receptor (human, UniProt P47871 26-477). Put plainly: cell-based or functional assay.
Sequence of human glucagon receptor (P47871 26-477): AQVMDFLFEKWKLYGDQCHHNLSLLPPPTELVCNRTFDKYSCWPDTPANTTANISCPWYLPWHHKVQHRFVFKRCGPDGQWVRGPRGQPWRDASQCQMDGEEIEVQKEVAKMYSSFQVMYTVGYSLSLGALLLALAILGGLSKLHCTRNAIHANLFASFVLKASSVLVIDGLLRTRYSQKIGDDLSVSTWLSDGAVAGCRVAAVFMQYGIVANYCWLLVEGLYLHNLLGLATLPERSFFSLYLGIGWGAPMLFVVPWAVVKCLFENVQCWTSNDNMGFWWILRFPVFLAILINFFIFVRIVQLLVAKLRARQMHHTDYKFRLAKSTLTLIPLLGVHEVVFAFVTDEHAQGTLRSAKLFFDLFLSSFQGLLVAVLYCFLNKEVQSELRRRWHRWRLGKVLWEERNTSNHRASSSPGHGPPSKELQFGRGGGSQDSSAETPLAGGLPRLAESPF
As to B1, the “EC50 hGLUC R [pM]” value is 46.8 pM.

In the case of B2, the “EC50 hGLUC R [pM]” value is 9.9 pM.

For B3, the “EC50 hGLUC R [pM]” value turned out to be 226 pM.

Turning to B4, the “EC50 hGLUC R [pM]” value came out at 8510 pM.

As to B5, the “EC50 hGLUC R [pM]” value was determined as 20500 pM.

For B6, the “EC50 hGLUC R [pM]” value was 6390 pM.
